Our source for the Kd and stoichiometry N values is paper doi:10.1101/507483.

Where two headings read alike, the source gives them in different places.

A word on the Kd: it is the free concentration of one partner at which half of the binding sites on the other are occupied at equilibrium, for simple one-to-one binding. As usually defined, the stoichiometry N is the number of molecules, sites or subunits per partner or assembly.

The target of assay [1] is TagA^ΔC, N-terminal domain of TagA from Thermoanaerobacter italicus (residues Met1-Gly195) (Thermoanaerobacter italicus). Kind of assay: AUC.
The target is the same in assay [2]. Put plainly: AUC. The source holds these as a separate data set.

In assay [1], “TagA^ΔC, N-terminal domain of TagA from Thermoanaerobacter italicus (residues Met1-Gly195) (domain or fragment)” displayed a Kd of 7.4 µM and a stoichiometry N of 2. For the same substance, in assay [2], the dissociation constant Kd amounted to 3.5 µM and the stoichiometry N worked out at 2.
